Data taken from patent US20250115680A1 (PROFOUNDBIO US, published 2025).
Blank lines part the entries; values can stand above or below the binder they belong to.

Columns and labels:
[1] = target: T1, mouse PTK-7 recombinant protein (mouse, UniProt Q8BKG3 23-696, limits assumed); experiment: ELISA, plate coated with 2 ug/mL mouse PTK-7 recombinant protein, HRP anti-human Fc detection, OD450
T1 construct: also called mouse PTK7 protein
T1 sequence (looked up): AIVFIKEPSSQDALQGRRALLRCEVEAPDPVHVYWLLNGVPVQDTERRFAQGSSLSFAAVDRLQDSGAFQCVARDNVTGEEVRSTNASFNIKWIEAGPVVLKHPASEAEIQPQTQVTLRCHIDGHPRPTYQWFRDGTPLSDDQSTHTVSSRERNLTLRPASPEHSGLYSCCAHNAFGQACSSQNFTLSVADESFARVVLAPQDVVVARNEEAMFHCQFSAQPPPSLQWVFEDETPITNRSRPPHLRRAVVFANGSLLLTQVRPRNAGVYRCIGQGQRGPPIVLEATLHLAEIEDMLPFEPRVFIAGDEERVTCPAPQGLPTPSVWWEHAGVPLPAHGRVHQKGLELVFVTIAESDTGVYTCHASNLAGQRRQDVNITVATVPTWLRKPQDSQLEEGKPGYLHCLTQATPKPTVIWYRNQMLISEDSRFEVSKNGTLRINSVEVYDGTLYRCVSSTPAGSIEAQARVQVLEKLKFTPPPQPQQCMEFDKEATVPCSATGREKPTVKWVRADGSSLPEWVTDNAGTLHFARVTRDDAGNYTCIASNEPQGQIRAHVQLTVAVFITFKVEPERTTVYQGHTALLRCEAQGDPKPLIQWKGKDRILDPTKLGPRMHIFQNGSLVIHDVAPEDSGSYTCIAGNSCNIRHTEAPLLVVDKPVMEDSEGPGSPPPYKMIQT
Experimental: (§1) Binding specificity property was tested by ELISA according to a standard protocol. Specifically, 96-well micro-plates were coated with 2 μg/mL human, cynomolgus, mouse, and rat PTK-7 recombinant protein in PBS 100 μL per well, incubated overnight at 4° C. Plates were washed twice by TBS+0.5% Tween20. 200 μL of blocking buffer (2% BSA in PBS) was added to each well and incubated at 37° C. for 2 hours. Plates were washed using the buffer mentioned above. Serially diluted antibodies were added to the ELISA plate with 100 μL per well and incubated for 1 hour at room temperature. Then plates were washed for 3 times. After washing, HRP conjugated anti-human Fc antibody solution (abcam, ab98624, diluted with blocking buffer) was added to the plate with 100 μl per well. The plates were incubated at room temperature for 1 hour and then washed for 3 times. Then TMB solution was added to plates with 100 μl per well, placed at room temperature for 5-15 mins, then the stop solution (2M H₂SO₄) was added with 50 μl per well. Finally, the result was measured by absorbance at A₄₅₀ and A₆₃₀.

[2] = target: T2, rat PTK-7 recombinant protein (rat, UniProt A0A8I6ALM9 40-713); experiment: ELISA, plate-coated rat PTK7 protein, anti-human Fc-HRP detection
T2 construct: also called rat PTK7 protein
Experimental: as §1

[3] = target: T2, rat PTK-7 recombinant protein; experiment: ELISA, plate coated with 2 ug/mL rat PTK-7 recombinant protein, HRP anti-human Fc detection, OD450
Experimental: as §1

[4] = target: T1, mouse PTK-7 recombinant protein; experiment: ELISA, plate-coated mouse PTK7 protein, anti-human Fc-HRP detection
Experimental: as §1

[5] = target: T1, mouse PTK-7 recombinant protein; experiment: ELISA, plate-coated mouse PTK7 recombinant protein
Experimental: as §1

EC50 [1]: 1.57 nM
EC50 [2]: 1.57 nM
EC50 [3]: 5.24 nM
EC50 [4]: 5.24 nM
B1: humanized antibody 2C5 (antibody, V domains shown)
VH: QVQLVQSGAEVKKPGASVKVSCKASGYTFTDYYINWVRQAPGQGLEWMGDINPYSGGPVYNQKFMARVTMTVDKSINTAYMELSRLRSDDTAVYYCARGDYYGSNYNYWGQGTLVTVSS
VL: EIVLTQSPATLSVSPGERATLSCRASQNIGTSIHWYQQKPGQAPRLLIKFASESISGIPARFSGSGSGTEFTLTISSLQSEDIAVYYCQQSNNWPYTFGQGTKLEIK
notes: Only variable regions are tied to 2C5; It was detected with anti-human Fc, so it has a human Fc

binding result [5]: no binding
B2: humanized antibody 13C4 (antibody, V domains shown)
VH: QVQLVESGGGLVKPGGSLRLSCAASGFAFSTYDMFWIRQAPGKGLEWVSTISSGGGYTYYPGSVKGRFTISRDNAKNSLYLQMNSLRAEDTAVYYCVRPLLRDSYFYFDVWGQGTMVTVSS
VL: EIVMTQSPATLSVSPGERATLSCRASSSVSSSYLHWYQQKPGQAPRLLIFRTSNLASGIPARFSGSGSGTEYTLTISSLQSEDAAVYYCQQYSGYPLTFGQGTKLEIK
notes: Only variable regions are tied to 13C4; It was detected with anti-human Fc

binding result [5]: no binding
B3: humanized antibody 2C8 (antibody, V domains shown)
VH: QIQLVQSGAEVKKPGASVKVSCKASGYTFTTYGMSWVRQAPGQGLEWMGWINTHSGVPTYVDEFKGRVTMTLDTSTSTAYMELSSLRSEDTAVYYCARSPFDYGSRGAWFVYWGQGTTVTVSS
VL: DVVMTQSPDSLAVSLGERATINCRSSQSIVHNSGDTYLEWYQQKPGQPPKLLIYKVSNRFPGVPDRFSGSGSGTDFTLTISSLQAEDLAVYYCFQGSHVPWTFGGGTKVEIK
notes: Only variable regions are tied to 2C8 by name; It was detected with anti-human Fc
